How the values were obtained:
[1] = Permeability characterization: penetration into blood vessel slices, laser confocal microscope; format: in vitro ADME; settings: 1 mg/mL dripped onto inner surface of 2*2 cm blood vessel slice
Method: 1 mg/mL of the photosensitive material with blood vessel repair function prepared in Example 1 was dripped onto the inner surface of the blood vessel, and the residual liquid on the inner surface of the blood vessel was wiped dry after a certain period of time, and the penetration depth in the blood vessel was measured using a laser confocal microscope.
Control group: a blood vessel was cut into 2*2 cm slices, with the inner surface facing upward and kept moist with 0.9% (by mass) physiological saline. 1 mg/mL of the third product in Example 1 was dripped onto the inner surface of the blood vessel, and the residual liquid on the inner surface of the blood vessel was wiped dry after a certain period of time, and the penetration depth in the blood vessel was measured using a laser confocal microscope.

[2] = test system: porcine peripheral blood vessels; test: Lumen gain and protein cross-linking after angioplasty with riboflavin balloon and photo-activation
Method: A porcine peripheral blood vessel was immersed in PBS buffer. Balloons (with a pore size of 50 μm and a surface porosity of 50%) was introduced into the blood vessel. The fluid prepared in Preparation Example 1 was infused to expand the balloons from the compressed state to the inflated state at a pressure of 6 atm. While maintaining the pressure of the balloons, a light source device activated the light-guiding element to emit 450 nm light, with a photocuring duration of 5 minutes.
A porcine peripheral blood vessel was immersed in PBS buffer. Balloons prepared in Preparation Example 6 was pushed into the blood vessel. The compressed balloons were expanded by injecting fluid at a pressure of 6 atm. Then, while maintaining the pressure of the balloons, the light-guiding element emitted light with a wavelength of 450 nm, with a photocuring duration of 5 minutes.
A porcine peripheral blood vessel was immersed in PBS buffer. Balloons prepared in Preparation Example 9 was pushed into the blood vessel. The compressed balloons were expanded by injecting fluid at a pressure of 6 atm. Then, while maintaining the pressure of the balloons, the light-guiding element emitted light with a wavelength of 450 nm, with a photocuring duration of 5 minutes.
A porcine peripheral blood vessel was immersed in PBS buffer. Balloons without riboflavin were pushed into the blood vessel. […]

| SMILES | The time when the drug is observed in the adventitia of blood vessels [1] | protein cross-linking under photo-activation / medial fiber network of treated arteries [2] |
| --- | --- | --- |
| N=C(N)NCCCC(N)C(=O)NCCCCC(NC(=O)C(N)CCCNC(=N)N)C(=O)NCCCCC(NC(=O)C(CCCCNC(=O)C(N)CCCNC(=N)N)NC(=O)C(N)CCCNC(=N)N)C(=O)NCCNC(=O)C(CCCCNC(=O)C(CCCCNc1ccc2c3c(cccc13)C(=O)N(CCOCCOCCOCCN1C(=O)c3cccc4c(NCCOCCOCCOCCN)ccc(c34)C1=O)C2=O)Nc1ccc2c3c(cccc13)C(=O)N(CCOCCOCCOCCN1C(=O)c3cccc4c(NCCOCCOCCOCCN)ccc(c34)C1=O)C2=O)NC(=O)C(CCCCNc1ccc2c3c(cccc13)C(=O)N(CCOCCOCCOCCN1C(=O)c3cccc4c(NCCOCCOCCOCCN)ccc(c34)C1=O)C2=O)Nc1ccc2c3c(cccc13)C(=O)N(CCOCCOCCOCCN1C(=O)c3cccc4c(NCCOCCOCCOCCN)ccc(c34)C1=O)C2=O (centres unmarked) [Experimental group] | 18 s | – |
| Cc1cc2nc3c(=O)[nH]c(=O)nc-3n(C[C@H](O)[C@H](O)[C@H](O)CO)c2cc1C [riboflavin] | – | denser medial fiber network |
